Values quoted from earlier work in patent US20160296600A1, “Relaxin Prodrugs” (ASCENDIS PHARMA RELAXIN DIVISION A/S, priority 2013, published 2016).

Conditions: humans, intravenous administration

In the case of “Relaxin: Mature human relaxin, hormonal peptide of approximately 6000 daltons; A-chain SEQ ID NO:1, B-chain SEQ ID NO:2”, the half-life is given as “less than 10 minutes”.
